The Human Domainome abundance scans (Beltran et al. 2025)
± gives the uncertainty stated by the source.

B1: Histone-lysine N-methyltransferase SETD2, residues 2382 to 2430; numbered along this chain, Q9BYW2 (parent)
chain: SPPKPKTIVLPPNWKTARDPEGKIYYYHVITRQTQWDPPTWESPGDDAS

Variants of: B1
Assay: abundance fitness (aPCA) (normalised: wild type 0, dead -1); higher = more abundant; growth selection in yeast, the domain comes from the species named
Conditions: Homo sapiens

Abundance fitness of substitutions, site by site:
W36: H 0.33 ± 0.079; F 0.321 ± 0.062; C -0.08 ± 0.045; M -0.382 ± 0.11; K -0.006 ± 0.056; E -0.027 ± 0.037; Y 0.203 ± 0.042; R 0.139 ± 0.045; I 0.139 ± 0.064; V 0.083 ± 0.042; T -0.05 ± 0.046; A -0.239 ± 0.07; S 0.171 ± 0.033; D -0.015 ± 0.032; Q -0.139 ± 0.048; L -0.082 ± 0.032; G -0.152 ± 0.039
R32: F -0.691 ± 0.21; E -0.197 ± 0.085; Y -0.215 ± 0.091; Q -0.022 ± 0.039; P -0.617 ± 0.057; A -0.304 ± 0.063; K 0.13 ± 0.076; S -0.363 ± 0.058; H -0.131 ± 0.1; N 0.031 ± 0.1; G -0.173 ± 0.042; L -0.315 ± 0.039; V -1.01 ± 0.14; C -0.357 ± 0.049; T -1.01 ± 0.27; I -0.997 ± 0.39; D -0.027 ± 0.097; M -0.15 ± 0.069; W -0.848 ± 0.05
E21: D -0.136 ± 0.12; F -0.115 ± 0.17; Y -0.552 ± 0.18; M -0.059 ± 0.06; K 0.134 ± 0.068; S 0.098 ± 0.039; C -0.134 ± 0.11; G -0.003 ± 0.035; L -0.487 ± 0.035; V -0.275 ± 0.093; R -0.043 ± 0.053; A -0.126 ± 0.065; P -0.989 ± 0.14; T -0.229 ± 0.095; I -0.316 ± 0.21; W -0.345 ± 0.048; Q -0.217 ± 0.063; H -0.737 ± 0.28
D19: W -0.889 ± 0.095; T 0.102 ± 0.069; V -0.404 ± 0.048; P -0.426 ± 0.1; H 0.027 ± 0.2; S -0.103 ± 0.043; E -0.314 ± 0.08; I -0.584 ± 0.26; C -0.725 ± 0.16; L -0.407 ± 0.068; M -0.172 ± 0.089; R -0.535 ± 0.042; Q -0.442 ± 0.039; A -0.537 ± 0.096; Y -0.601 ± 0.095
Y26: T -0.637 ± 0.15; K -0.655 ± 0.18; S -0.786 ± 0.13; F -0.315 ± 0.12; L -0.878 ± 0.088; D -0.553 ± 0.21; C -0.853 ± 0.3; W -0.498 ± 0.091; P -0.765 ± 0.057; V -0.585 ± 0.074; G -0.934 ± 0.1; M -0.694 ± 0.12; Q -0.777 ± 0.12; H -0.618 ± 0.13; E -0.981 ± 0.077; N -0.517 ± 0.24; A -0.865 ± 0.059; I -0.782 ± 0.28
Q33: V -0.251 ± 0.038; C -0.251 ± 0.048; N -0.117 ± 0.14; H -0.578 ± 0.14; M -0.614 ± 0.12; G -0.798 ± 0.064; R -0.318 ± 0.056; T -0.13 ± 0.087; W -0.751 ± 0.054; K -0.401 ± 0.12; F -0.906 ± 0.28; D -0.185 ± 0.087; E 0.099 ± 0.059; A -0.149 ± 0.051; L -0.411 ± 0.038; I -0.551 ± 0.17; P -0.904 ± 0.075
K23: S -0.279 ± 0.073; V -0.303 ± 0.054; A -0.288 ± 0.076; N -0.563 ± 0.14; D -0.493 ± 0.047; L -0.457 ± 0.035; M -0.514 ± 0.08; H -0.686 ± 0.28; G -0.243 ± 0.035; Y -0.316 ± 0.11; T -0.147 ± 0.044; Q -0.28 ± 0.09; E -0.433 ± 0.12; F -0.619 ± 0.15; I -0.447 ± 0.14; W -0.789 ± 0.047; R 0.029 ± 0.034; C -0.402 ± 0.094
P38: G -0.693 ± 0.051; A -0.126 ± 0.036; F -0.143 ± 0.094; E -0.493 ± 0.12; D -0.836 ± 0.15; C -0.221 ± 0.11
P20: Q 0.015 ± 0.045; W -0.367 ± 0.054; G -0.03 ± 0.031; A -0.166 ± 0.031; M -0.078 ± 0.034; C -0.348 ± 0.043; H -0.157 ± 0.038; T 0.006 ± 0.033; R 0.017 ± 0.032; I -0.165 ± 0.045; N -0.008 ± 0.035; D -0.122 ± 0.038; F -0.398 ± 0.059; V -0.31 ± 0.033; S -0.106 ± 0.036; E -0.074 ± 0.053; K 0.122 ± 0.039; Y -0.331 ± 0.052; L -0.223 ± 0.032
Y27: T -0.185 ± 0.075; L -0.534 ± 0.054; G -0.747 ± 0.067; F -0.487 ± 0.15; H -0.293 ± 0.041; C -0.543 ± 0.093; V -0.173 ± 0.049; M -0.339 ± 0.046; E -0.3 ± 0.038; D -0.446 ± 0.11; W -0.163 ± 0.062; R -0.265 ± 0.052; P -0.898 ± 0.089; S -0.433 ± 0.052; Q -0.136 ± 0.081; K -0.261 ± 0.082
V29: Q -0.018 ± 0.078; R -0.428 ± 0.05; H -0.208 ± 0.12; T 0.145 ± 0.077; C -0.074 ± 0.064; M 0.079 ± 0.087; L -0.287 ± 0.053; K -0.255 ± 0.034; G -0.309 ± 0.039; W -0.564 ± 0.068; Y -0.258 ± 0.12; N -0.644 ± 0.26; E 0.139 ± 0.057; A 0.011 ± 0.055; S -0.002 ± 0.035
T34: V -0.075 ± 0.052; K -0.605 ± 0.29; P -0.29 ± 0.068; C -0.109 ± 0.1; H -0.059 ± 0.064; Q -0.111 ± 0.042; L -0.342 ± 0.047; N -0.493 ± 0.22; E -0.394 ± 0.062; D -0.774 ± 0.055; R 0.109 ± 0.045; I -0.149 ± 0.079; F -0.059 ± 0.061; A -0.296 ± 0.067; G -0.379 ± 0.039; W -0.18 ± 0.036; Y -0.52 ± 0.16; M 0.188 ± 0.077
G22: S -0.297 ± 0.07; N -0.555 ± 0.32; L -0.593 ± 0.11; F -0.733 ± 0.36; V -0.782 ± 0.088; R -0.607 ± 0.059; W -0.224 ± 0.093; M -0.636 ± 0.14; I -0.753 ± 0.29; Q -0.841 ± 0.18; A -0.844 ± 0.12; C -0.882 ± 0.17; E -1.1 ± 0.19; T -1.02 ± 0.078; H -0.484 ± 0.16; D -0.128 ± 0.079; K -0.482 ± 0.076
D37: R -0.252 ± 0.049; Q -0.235 ± 0.072; N -0.298 ± 0.18; V 0.013 ± 0.045; W -0.255 ± 0.061; L -0.159 ± 0.036; P -0.48 ± 0.11; E 0.049 ± 0.063; F -0.68 ± 0.15; M -0.184 ± 0.054; C -0.07 ± 0.071; T 0.117 ± 0.062; A -0.049 ± 0.036; K -0.061 ± 0.11; Y -0.314 ± 0.1; I 0.005 ± 0.094
T31: L -0.748 ± 0.099; P -0.785 ± 0.047; Y -0.831 ± 0.27; N -0.798 ± 0.23; H -0.761 ± 0.17; D -0.724 ± 0.25; K -0.651 ± 0.067; M -0.862 ± 0.11; A -0.742 ± 0.11; S -0.131 ± 0.064; E -0.735 ± 0.048; W -1.06 ± 0.077; R -0.502 ± 0.037; G -0.927 ± 0.088; I -0.945 ± 0.13; Q -0.627 ± 0.084
Q35: F -0.683 ± 0.13; T -0.052 ± 0.046; L -0.364 ± 0.065; A -0.155 ± 0.053; P -0.535 ± 0.17; K -0.351 ± 0.1; I -0.505 ± 0.14; V -0.212 ± 0.036; C -0.337 ± 0.085; W -0.722 ± 0.12; G -0.735 ± 0.047; N -0.875 ± 0.39; S -0.062 ± 0.032; M -0.074 ± 0.069; Y -0.489 ± 0.038; E -0.547 ± 0.09; H -0.083 ± 0.099; D -0.869 ± 0.24
R18: I -0.095 ± 0.15; Y -0.105 ± 0.062; M -0.086 ± 0.059; Q -0.482 ± 0.14; S -0.543 ± 0.035; N 0.099 ± 0.2; V -0.26 ± 0.066; L -0.404 ± 0.045; T -0.112 ± 0.055; P -0.576 ± 0.17; W -0.31 ± 0.095; K -0.072 ± 0.062
I30: Y -0.244 ± 0.12; C -0.498 ± 0.04; S -0.344 ± 0.06; L -0.087 ± 0.046; M -0.19 ± 0.034; H -0.068 ± 0.088; N -0.046 ± 0.12; E -0.307 ± 0.044; K -0.144 ± 0.052; G -0.313 ± 0.041; T -0.013 ± 0.07; A -0.314 ± 0.057; F -0.361 ± 0.2; D -0.21 ± 0.08; W -0.447 ± 0.09; P -0.08 ± 0.042; R -0.018 ± 0.046; Q -0.268 ± 0.11
H28: M -1.01 ± 0.29; A -1.06 ± 0.072; V -0.991 ± 0.16; Y -0.6 ± 0.33; G -1.01 ± 0.12; S -0.767 ± 0.065; N 0.023 ± 0.19; D -0.213 ± 0.059; F -0.94 ± 0.37; C -0.792 ± 0.21; E -0.689 ± 0.17; W -1.05 ± 0.12; K -0.971 ± 0.12; Q -0.64 ± 0.18; L -1.09 ± 0.17; R -1.03 ± 0.12
Y25: G -0.844 ± 0.051; L -0.358 ± 0.047; K -0.569 ± 0.089; T -0.73 ± 0.14; V -0.395 ± 0.039; Q -0.454 ± 0.1; N -0.911 ± 0.17; F -0.227 ± 0.12; C -0.538 ± 0.077; H -0.419 ± 0.12; A -0.642 ± 0.072; M -0.56 ± 0.047; D -0.485 ± 0.11; P -0.784 ± 0.17; I -0.38 ± 0.11; S -0.628 ± 0.066; W -0.907 ± 0.13; R -0.628 ± 0.049
I24: W -0.123 ± 0.27; V -0.406 ± 0.27; G -0.578 ± 0.22; T -0.228 ± 0.41; Y -0.336 ± 0.33; A -0.253 ± 0.23; H -0.549 ± 0.48
